This passage reports fold above background and fold increase in signal above background results from patent US20020062008A1.

The target in test [1] is LFA-1 leucine zipper fusion protein (soluble CD11a/CD18) (UniProt P20701). Briefly: ELISA, CAM/Ig on captured soluble CD11a/CD18.
In test [2] the target is soluble human αd/CD18 leucine zipper heterodimer (human) (UniProt P05107). Put plainly: ELISA, CAM/Ig on αd/CD18LZ captured with 212D. Background: An ELISA detects its analyte on a solid surface through an enzyme-linked reagent.

B1: ICAM-2/Ig (Fc fusion, part only; not given: Ig portion, UniProt P13598 25-223, looked up, part only)
chain, part: KVFEVHVRPKKLAVEPKGSLEVNCSTTCNQPEVGGLETSLDKILLDEQAQWKHYLVSNISHDTVLQCHFTCSGKQESMNSNVSVYQPPRQVILTLQPTLVAVGKSFTIECRVPTVEPLDSLTLFLFRGNETLHYETFGKAAPAPQEATATFNSTADREDGHRNFSCLAVLDLMSRGGNIFHKHSAPKMLEIYEPVSDSQ
Molecule B1 had a fold above background in test [1] of 10 fold.

B2: soluble VCAM-1/IgG1 fusion protein (seven extracellular immunoglobulin-like domains) (Fc fusion, UniProt P19320 25-698, looked up, not shown: a dimerising Fc or GST)
chain: FKIETTPESRYLAQIGDSVSLTCSTTGCESPFFSWRTQIDSPLNGKVTNEGTTSTLTMNPVSFGNEHSYLCTATCESRKLEKGIQVEIYSFPKDPEIHLSGPLEAGKPITVKCSVADVYPFDRLEIDLLKGDHLMKSQEFLEDADRKSLETKSLEVTFTPVIEDIGKVLVCRAKLHIDEMDSVPTVRQAVKELQVYISPKNTVISVNPSTKLQEGGSVTMTCSSEGLPAPEIFWSKKLDNGNLQHLSGNATLTLIAMRMEDSGIYVCEGVNLIGKNRKEVELIVQEKPFTVEISPGPRIAAQIGDSVMLTCSVMGCESPSFSWRTQIDSPLSGKVRSEGTNSTLTLSPVSFENEHSYLCTVTCGHKKLEKGIQVELYSFPRDPEIEMSGGLVNGSSVTVSCKVPSVYPLDRLEIELLKGETILENIEFLEDTDMKSLENKSLEMTFIPTIEDTGKALVCQAKLHIDDMEFEPKQRQSTQTLYVNVAPRDTTVLVSPSSILEEGSSVNMTCLSQGFPAPKILWSRQLPNGELQPLSENATLTLISTKMEDSGVYLCEGINQAGRSRKEVELIIQVTPKDIKLTAFPSESVKEGDTVIISCTCGNVPETWIILKKKAETGDTVLKSIDGAYTIRKAQLKDAGVYECESKNKVGSQLRSLTLDVQGRENNKDYFSPE
Molecule B2 returned a fold increase in signal above background in test [2] of 5 fold.
